In article doi:10.1101/2023.01.30.525655 (bioRxiv, 2023):

Key:
crystal structure = target: the molecule itself; assay: crystal structure
[1] = target: RED-NHS-MIF-6xHis (human MIF-6xHis labelled with the RED-NHS dye) (human, UniProt P14174 2-115, RED-NHS dye (chemically labeled)); assay: MST
[2] = target: MIF-6xHis (human macrophage migration inhibitory factor, hexahistidine-tagged) (human, UniProt P14174 2-115); assay: cell-based or functional assay
SEC = target: the molecule itself; assay: SEC

Chain of RED-NHS-MIF-6xHis (human MIF-6xHis labelled with the RED-NHS dye) (P14174 2-115): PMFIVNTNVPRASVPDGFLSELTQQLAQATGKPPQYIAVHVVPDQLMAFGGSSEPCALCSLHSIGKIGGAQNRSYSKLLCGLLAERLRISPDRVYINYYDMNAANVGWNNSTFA
Chain of MIF-6xHis (human macrophage migration inhibitory factor, hexahistidine-tagged) (P14174 2-115): as above

Kd [1]	synergy in the CXCR4 yeast lacZ reporter, 10 µM MIF with 10 µM MDL2 [2]	Binder	stoichiometry N (crystal structure)	stoichiometry N (SEC)
< 5 µM		MDL3-6xHis (Arabidopsis thaliana MIF/D-DT-like protein 3, hexahistidine-tagged) (natural protein, UniProt F4J4H3 1-112, looked up) MPCLYITTNVNFDGVNTDPFYSEVTKAVASIVGRPQNLVMVVLKGSVEIVFGGNKEAAAYAEIVSMGGITKQVKRELIATVGSILHTHFSIHPTRFIFKVFDINSLPLPSKL	3	
< 5 µM	~3 fold over the MIF-MDL1 combination	MDL2-6xHis (Arabidopsis thaliana MIF/D-DT-like protein 2, hexahistidine-tagged) (natural protein) PCLNLSTNVNLDGVDTSSILSEASSTVAKIIGKPENYVMIVLKGSVPMSFGGTEDPAAYGELVSIGGLNADVNKKLSAAVSAILETKLSVPKSRFFLKFYDTKGSFFGWNGATL		3
